Data on ten molecules can be found in article PMC7035956 (Nature chemical biology, 2019).

Where a chain is given by its changes, count along the chain named. In names and notes the source's numbering stands.

First the molecules themselves.
T1: FANCL URD-RING fragment (FANCL^UR) (human, UniProt Q9NW38 109-375)
T1 sequence: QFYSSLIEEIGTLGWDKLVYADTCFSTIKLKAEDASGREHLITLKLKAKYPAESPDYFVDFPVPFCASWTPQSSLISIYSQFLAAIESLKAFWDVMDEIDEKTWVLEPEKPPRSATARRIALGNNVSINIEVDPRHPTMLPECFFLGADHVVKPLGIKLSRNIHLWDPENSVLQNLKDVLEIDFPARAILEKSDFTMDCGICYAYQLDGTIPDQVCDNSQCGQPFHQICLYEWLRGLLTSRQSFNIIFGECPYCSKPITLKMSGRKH

B1: Ube2T (enzyme)
chain: MQRASRLKRELHMLATEPPPGITCWQDKDQMDDLRAQILGGANTPYEKGVFKLEVIIPERYPFEPPQIRFLTPIYHPNIDSAGRICLDVLKLPPKGAWRPSLNIATVLTSIQLLMSEPNPDDPLMADISSEFKYNKPAFLKNARQWTEKHARQKQKADEEEMLDNLPEAGDSRVHNSTQKRKASQLVGIEKKFHPDV
B2: Ube2T R84S (enzyme)
chain: B1 chain with R84S
B3: Ube2T T23R+W25Q (enzyme)
chain: B1 chain with T23R, W25Q
B4: Ube2T K95A (enzyme)
chain: B1 chain with K95A
B5: Ube2T K91A (enzyme)
chain: B1 chain with K91A
B6: Ube2T D32A+D33A+L92A (enzyme)
chain: B1 chain with D32A, D33A, L92A
B7: Ube2T R84S+K91A+K95A (enzyme)
chain: B1 chain with R84S, K91A, K95A
B8: FANCL RING (FANCL^R) (domain or fragment)
chain: EIDFPARAILEKSDFTMDCGICYAYQLDGTIPDQVCDNSQCGQPFHQICLYEWLRGLLTSRQSFNIIFGECPYCSKPITLKMSGRKH

Experiment [1] concerns the target Xenopus laevis FANCD2 (xFANCD2) (Xenopus laevis). As to the kind of experiment: MST.
For experiment [2], the target named is T1, FANCL URD-RING fragment (FANCL^UR). Description: ITC. For orientation: In ITC the heat of successive injections is recorded.
The experiment “Ube2T D32A+D33A+L92A” has as its target B6. Description: ITC.
The target in the experiment “Ube2T T23R+W25Q” is B3. Description: ITC.
In the experiment “Ube2T” the target is B1. As to the kind of experiment: ITC.

In turn, “Ube2T^1-152 (from UniProt Q9NPD8 1-152) (domain or fragment)” gave a Kd in experiment [1] of 320 µM. Same read-out and setting: the same measure for “Ube2Tv3 in the Ube2T^1-152 background (E54R+P93G+P94G) (from UniProt Q9NPD8 1-152) (domain or fragment)”: 238 µM. B1 returned a Kd in experiment [2] of roughly 119 nM. For the molecule B2, the binding result in experiment [2] is reported as “binds”.

In experiment [2], B3 came in with a Kd of 200 nM. That is a sub-micromolar value. Consider B4, for which the binding result in experiment [2] was “binds”. Regarding B5, the binding result in experiment [2] is “binds”. In experiment [2], B6 displayed a Kd of roughly 119 nM. For the molecule B7, in experiment [2], the binding result is on record as “binds”. For the molecule B8, the Kd with Ube2T D32A+D33A+L92A, with Ube2T T23R+W25Q and with Ube2T was roughly 253 nM each time.

A word on the Kd: it is the equilibrium constant for the complex coming apart. Read a high Kd as a looser complex.
